Assay results taken from patent US20240270861A1.

How the values were obtained:
[1] = biological target: human BAFF-R (B cell-activating factor receptor) expressed on cells (human) (UniProt Q96RJ3); test: cell-based or functional assay
[2] = biological target: human BAFF-R (B cell-activating factor receptor) expressed on cells (human) (UniProt Q96RJ3); test: BAFF-biotin blocking, flow cytometry, hBAFF-R CHO cells; competitor BAFF-biotin
[3] = biological target: poly-specificity reagent (PSR): detergent solubilized CHO cell membrane proteins; test: flow cytometry PSR assay: test article captured on protein A beads, biotinylated PSR detected with streptavidin-PE, anti-human Fc for expression; control panel without PSR (FIG. 71D) prints Q2 0.019
[4] = biological target: poly-specificity reagent (PSR): detergent solubilized CHO cell membrane proteins; test: flow cytometry PSR assay: test article on Protein A coated beads, biotinylated PSR, read-out with SA-PE
[5] = biological target: poly-specificity reagent (PSR): detergent solubilized CHO cell membrane proteins; test: PSR assay: molecule on protein A beads, biotinylated PSR, SA-PE read out by flow cytometry; + PSR panel
[6] = biological target: poly-specificity reagent (PSR): detergent solubilized CHO cell membrane proteins; test: flow cytometry PSR assay: test article captured on protein A beads, biotinylated PSR detected with streptavidin-PE, anti-human Fc for expression; control panel without PSR (FIG. 71C) prints Q2 0.020

Substance: F3′ isotype control (F3′-palivizumab) (bispecific antibody)
- KHYG-1-CD16a cytotoxicity on BJAB cells, Max killing (%) [1]: 48%

Substance: Human IgG1k (antibody)
- Minimum (MFI) [2]: 68000 MFI

Substance: Ixekizumab (PSR positive control) (antibody)
- events in quadrant Q2 (Expression-FITC positive, Binding-PE positive), + PSR [3]: 79.6%

Substance: Ixekizumab (antibody)
- percent of events in Q2 (Expression-FITC positive, Binding-PE positive), + PSR [4]: 79.6%

Substance: Ixekuzumab (antibody)
- % of events in quadrant Q2 (PSR binding+) [5]: 27.1%

Substance: Rituximab (antibody)
- percent of events in Q2 (Expression-FITC positive, Binding-PE positive), + PSR [4]: 56.2%

Substance: trastuzumab (antibody)
- events in quadrant Q2 (Expression-FITC positive, Binding-PE positive), + PSR [6]: 0.067%
- percent of events in Q2 (Expression-FITC positive, Binding-PE positive), + PSR [4]: 0.087%
